Test results published in paper PMC10349104.
Values joined by “and” are separate entries in the source; they are usually repeats but may differ in a detail not shown here. Identical values can stand only once. Like-named read-outs stand apart in the source and are kept apart here.

How the values were obtained:
[1] = target: T1, EVA-4, P0C8E9; test: not stated; Kd of EVA-4 for human chemokines, three readings (source data of Supplementary Fig. 7); method and conditions not told for EVA-4
T1 chain: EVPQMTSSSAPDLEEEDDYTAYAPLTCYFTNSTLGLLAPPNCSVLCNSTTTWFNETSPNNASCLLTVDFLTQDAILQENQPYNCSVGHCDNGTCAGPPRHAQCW

[2] = target: EVA-A(C8) (Amblyomma americanum); test: SPR
[3] = target: EVA-A(DN) (Amblyomma americanum); test: SPR
[4] = target: EVA-A(L39P) (Amblyomma americanum); test: SPR
[5] = target: EVA-A(Y44A) (Amblyomma americanum); test: SPR
[6] = target: EVA-AAM1001 (Amblyomma americanum); test: SPR
[7] = remark: other sources report otherwise

B1: CCL4, P13236 24-92 (ligand)
chain: APMGSDPPTACCFSYTARKLPRNFVVDYYETSSLCSQPAVVFQTKRSKQVCADPSESWVQEYVYDLELN
Question: B1 was tested. Which Kd [1, 7] did it give?
Answer: 212 nM and 126 nM and 137 nM

B2: CCL14 (ligand)
chain: TKTESSSRGPYHPSECCFTYTTYKIPRQRIMDYYETNSQCSKPGIVFITKRGHSVCTNPSDKWVQDYIKDMKEN
modifications: not checked
Question: B2 was tested. Which Kd [2] did it give?
Answer: 1.09 nM and 1.16 nM and 1.66 nM

Question: And the koff [2]?
Answer: 0.000525 s⁻¹ and 0.00045 s⁻¹ and 0.000476 s⁻¹

Question: And the kon [2]?
Answer: 482000 M⁻¹ s⁻¹ and 389000 M⁻¹ s⁻¹ and 288000 M⁻¹ s⁻¹

Question: And the Kd [3]?
Answer: 0.12 nM and 0.109 nM and 0.11 nM

Question: What about the koff [3] of the same binder?
Answer: 8.54e-05 s⁻¹ and 7.6e-05 s⁻¹ and 7.69e-05 s⁻¹

Question: And the kon [3]?
Answer: 714000 1/(M s) and 697000 1/(M s) (2×)

Question: What about the Kd [4] of the same binder?
Answer: 0.0403 nM and 0.0431 nM and 0.0505 nM

Question: What about the Kd [5] of the same binder?
Answer: 0.12 nM and 0.125 nM and 0.0725 nM

Question: What about the koff [5] of the same binder?
Answer: 6.21e-05 s⁻¹ and 5.76e-05 s⁻¹ and 3.35e-05 s⁻¹

Question: And the kon [5]?
Answer: 519000 M⁻¹ s⁻¹ and 462000 M⁻¹ s⁻¹

Question: What about the Kd [6] of the same binder?
Answer: 0.0551 nM and 0.0372 nM and 0.0569 nM

Question: And the koff [6]?
Answer: 6.24e-05 s⁻¹ and 5.52e-05 s⁻¹ and 6.41e-05 s⁻¹

Question: And the kon [6]?
Answer: 1.1e+06 1/(M s) (2×) and 1.5e+06 1/(M s)

Question: And the Kd [1]?
Answer: 0.765 nM and 1.17 nM and 1.14 nM

B3: CCL15 (ligand)
chain: QFTNDAETELMMSKLPLENPVVLNSFHFAADCCTSYISQSIPCSLMKSYFETSSECSKPGVIFLTKKGRQVCAKPSGPGVQDCMKKLKPYSI
modifications: not checked
Question: B3 was tested. Which Kd [2, 7] did it give?
Answer: 714 nM and 467 nM and 550 nM

Question: What about the koff [2, 7] of the same binder?
Answer: 0.0149 s⁻¹ and 0.0104 s⁻¹ and 0.013 s⁻¹

Question: What about the kon [2, 7] of the same binder?
Answer: 20800 M⁻¹ s⁻¹ and 22300 M⁻¹ s⁻¹ and 23700 M⁻¹ s⁻¹

Question: And the Kd [3, 7]?
Answer: 35.6 nM and 33.6 nM and 33 nM

Question: What about the koff [3, 7] of the same binder?
Answer: 0.00216 s⁻¹ and 0.00209 s⁻¹ and 0.00218 s⁻¹

Question: What about the kon [3, 7] of the same binder?
Answer: 60800 M⁻¹ s⁻¹ and 62100 M⁻¹ s⁻¹ and 66000 M⁻¹ s⁻¹

Question: And the Kd [4, 7]?
Answer: 26.9 nM and 23 nM and 29.8 nM

Question: What about the koff [4, 7] of the same binder?
Answer: 0.0026 s⁻¹ and 0.00246 s⁻¹ and 0.00303 s⁻¹

Question: What about the kon [4, 7] of the same binder?
Answer: 96500 M⁻¹ s⁻¹ and 107000 M⁻¹ s⁻¹ and 101000 M⁻¹ s⁻¹

Question: And the Kd [5, 7]?
Answer: 80.9 nM and 215 nM and 188 nM

Question: What about the koff [5, 7] of the same binder?
Answer: 0.00852 s⁻¹ and 0.0138 s⁻¹ and 0.0129 s⁻¹

Question: What about the kon [5, 7] of the same binder?
Answer: 105000 M⁻¹ s⁻¹ and 64300 M⁻¹ s⁻¹ and 68500 M⁻¹ s⁻¹

Question: And the Kd [6, 7]?
Answer: 1.7 nM and 1.77 nM and 1.85 nM

Question: And the koff [6, 7]?
Answer: 0.000308 s⁻¹ and 0.000311 s⁻¹ and 0.000314 s⁻¹

Question: And the kon [6, 7]?
Answer: 182000 M⁻¹ s⁻¹ and 175000 M⁻¹ s⁻¹ and 170000 M⁻¹ s⁻¹

Question: What about the Kd [1] of the same binder?
Answer: 287 nM and 216 nM and 218 nM
